Test results from patent publication US20240261333A1 (published 2024).
One block for each binder: values may come before it.

Assays:
Experiment in all cases: co-IP with anti-FLAG, C-FLAG B3GNT2, mass spectrometry
CHCHD3 = target: T1, CHCHD3 (human, UniProt Q9NX63 2-227, limits assumed)
T1 construct: also called NP_001304106.1 (+1)
T1 sequence (looked up): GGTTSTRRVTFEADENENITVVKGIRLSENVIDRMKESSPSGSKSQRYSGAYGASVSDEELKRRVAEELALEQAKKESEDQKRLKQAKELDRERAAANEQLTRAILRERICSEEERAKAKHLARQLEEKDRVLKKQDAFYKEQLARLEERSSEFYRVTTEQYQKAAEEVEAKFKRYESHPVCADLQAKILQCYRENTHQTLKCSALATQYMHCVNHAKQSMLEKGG

RPL23 = RPL23 (human, UniProt P62829 1-140)
IMMT = target: T2, IMMT (human, UniProt Q16891-4 34-757, limits assumed)
T2 construct: also called NP_001093639.1 (+3)
T2 sequence (looked up): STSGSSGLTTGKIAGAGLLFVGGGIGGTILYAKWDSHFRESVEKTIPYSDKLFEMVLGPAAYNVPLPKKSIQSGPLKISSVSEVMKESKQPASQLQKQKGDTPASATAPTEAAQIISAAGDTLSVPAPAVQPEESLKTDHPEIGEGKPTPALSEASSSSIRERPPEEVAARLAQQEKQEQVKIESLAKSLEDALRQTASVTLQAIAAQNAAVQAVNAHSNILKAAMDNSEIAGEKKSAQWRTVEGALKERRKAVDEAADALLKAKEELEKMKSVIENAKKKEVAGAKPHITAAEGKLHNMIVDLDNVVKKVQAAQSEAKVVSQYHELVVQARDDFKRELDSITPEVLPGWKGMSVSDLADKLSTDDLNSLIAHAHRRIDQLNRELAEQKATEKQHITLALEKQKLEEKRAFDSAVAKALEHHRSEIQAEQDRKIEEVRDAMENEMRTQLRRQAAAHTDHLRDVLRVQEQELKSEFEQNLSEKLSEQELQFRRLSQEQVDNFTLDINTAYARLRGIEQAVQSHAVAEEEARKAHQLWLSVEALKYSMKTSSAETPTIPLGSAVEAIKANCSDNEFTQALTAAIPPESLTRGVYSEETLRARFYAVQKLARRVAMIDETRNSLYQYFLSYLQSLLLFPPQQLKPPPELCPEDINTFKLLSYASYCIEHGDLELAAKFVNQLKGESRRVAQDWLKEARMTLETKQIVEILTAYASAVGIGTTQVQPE

RPS20 = RPS20 (human, UniProt P60866 2-119)
PSMB5 = target: T3, PSMB5 (human, UniProt P28074 60-263)
T3 construct: also called NP_002788.1
T3 sequence (P28074 60-263 limits assumed): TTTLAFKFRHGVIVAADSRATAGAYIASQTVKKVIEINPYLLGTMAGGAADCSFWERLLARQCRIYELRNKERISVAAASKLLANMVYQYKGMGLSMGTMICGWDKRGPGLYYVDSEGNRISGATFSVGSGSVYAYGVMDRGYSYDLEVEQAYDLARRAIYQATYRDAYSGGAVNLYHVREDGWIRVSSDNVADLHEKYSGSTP

co-IP mass spectrometry count (CHCHD3): 15
co-IP mass spectrometry count (RPL23): 6
co-IP mass spectrometry count (IMMT): 26
B1: C-terminal FLAG tagged B3GNT2 (enzyme, human, UniProt Q9NY97 1-397, looked up)
chain: MSVGRRRIKLLGILMMANVFIYFIMEVSKSSSQEKNGKGEVIIPKEKFWKISTPPEAYWNREQEKLNRQYNPILSMLTNQTGEAGRLSNISHLNYCEPDLRVTSVVTGFNNLPDRFKDFLLYLRCRNYSLLIDQPDKCAKKPFLLLAIKSLTPHFARRQAIRESWGQESNAGNQTVVRVFLLGQTPPEDNHPDLSDMLKFESEKHQDILMWNYRDTFFNLSLKEVLFLRWVSTSCPDTEFVFKGDDDVFVNTHHILNYLNSLSKTKAKDLFIGDVIHNAGPHRDKKLKYYIPEVVYSGLYPPYAGGGGFLYSGHLALRLYHITDQVHLYPIDDVYTGMCLQKLGLVPEKHKGFRTFDIEEKNKNNICSYVDLMLVHSRKPQEMIDIWSQLQSAHLKC
notes: FLAG-tagged ORF overexpressed in cells; pulled down from lysate with mouse anti-FLAG; also called C-FLAG B3GNT2; C-term flag; not shown: C-terminal FLAG tag

B2: C-terminal FLAG tagged B3GNT2 (enzyme, human, UniProt Q9NY97 1-397, looked up)
chain: B1 chain
notes: FLAG-tagged ORF overexpressed in A375 cells; pulled down from the lysate with mouse anti-FLAG; also called C-FLAG B3GNT2; C-term flag; not shown: C-terminal FLAG tag
co-IP/MS count, C-term flag (RPS20): 7
co-IP/MS count, C-term flag (PSMB5): 0
